Data on one molecule can be found in US12083113B2, “Use of neuronal nitric oxide synthase inhibitors for immunotherapy in melanoma patients” (Northwestern University, priority 2018, dated 2024).

The subject of one experiment is PD-L1 in A375 cells. Description: PD-L1 expression by immunofluorescence staining. Type of experiment: cell-based, human. To be noted: interferon alone, 250 Units/ml, 72 hours. As to the method:
FIG. 5. Expression of PD-L1 in metastatic melanoma A375 cells detected by immunofluorescence staining. […]. Cells were then fixed and permeabilized with 4% formaldehyde and methanol. Samples were blocked in blocking buffer containing 5% horse serum for 1 hour. The slides were then allowed to incubate in a 1:50 PD-L1 antibody dilution overnight at 4° C. and DAPI reagent for 1 hour. Representative images are shown stained with PD-L1 antibody (green) and DAPI (blue fluorescence). (Original magnifications, 100×). Representative images for 2 experimental replicates are shown.
Expression levels of PD-L1 detected by Immunofluorescence. A375 cells were plated on coverslips and incubated with 250 units/mL of IFN-α or IFN-γ in the presence or absence of […] of nNOS inhibitors for 72 hours. After treatment, cells on coverslips were fixed with 4% formaldehyde/PBS for 15 minutes at room temperature, followed by incubation with ice-cold 100% methanol for 10 minutes at −20° C. Samples were then incubated in blocking buffer (1×PBS, 5% horse serum, 0.3% Triton X-100) for 60 minutes, then in a 1:50 PD-L1 antibody dilution in dilution buffer (1×PBS, 1% BSA, 0.3% Triton X-100) overnight at 4° C. Stained specimens were rinsed with PBS then cured in the dark with DAPI fluorescence staining reagent for 1 hour. Slides were visualized and recorded using the BZ-X700 microscope (Keyence, Itasca, IL).

The subject of experiment [1] is A375 metastatic melanoma cells. Description: Matrigel invasion assay. Type of experiment: cell-based, human. To be noted: compared to control, p<0.05. Here is the method: FIG. 1. A) Effect of IFN-γ on melanoma invasion potential detected by matrigel invasion assay. The represented data were from A375 metastatic melanoma cells treated with IFN-γ. *, p<0.05 compared to control. B) Adhesion analysis. A375 melanoma cells were seeded on top of fibroblast monolayer and incubated with IFN-γ for 1 hour, followed by MTT assay. *, p<0.05 compared to control.

For another experiment, the system named is STAT1. The experiment can be described thus: Western blot of STAT1 in A375 cells. Type of experiment: cell-based, human. To be noted: interferon alone. Here is the method:
FIG. 3. […] A375 cells were treated with 100 units/mL and 250 units/mL of IFN-γ or IFN-α for 24 hours; whole cell lysates and nuclear extracts were used for Western blot analysis to detect STAT3 and pSTAT3 respectively. […] Protein isolation and Western blotting. All samples were kept at 4° C. unless otherwise noted.
The membranes were blocked using 10% non-fat milk (NOS1, STAT1/2, Actin, Lamin A/C) or 5% bovine serum albumin (BSA; SH3057402; Fisher Scientific, Waltham, MA) (p-STAT1/3), then incubated with primary antibodies for 1 hour at room temperature or overnight at 4° C., followed by secondary antibodies for 1 hour at room temperature as recommended by the manufacturer. Blots were washed extensively with TBS-T after each antibody incubation.
Background: A western blot detects proteins with antibodies after separation by electrophoresis.

The test system of experiment [2] is WM115, Sk-mel-28 and A375. Description: Reverse Phase Protein Array in three human melanoma cell lines. Type of experiment: cell-based. To be noted: 250 units/mL interferon. Here is the method:
FIG. 4. A) Heat map of Reverse Phase Protein Array (RPPA) showing distinct effects of IFN-α and IFN-γ on protein expression levels in three human melanoma cell lines (WM115, Sk-mel-28 and A375). Three melanoma cell lines were treated with 250 units/mL of interferons for 48 hours. Whole cell lysates were collected and subjected to RPPA assay. […] Red, high expression; green, low expression. All the data points were normalized for protein loading and transformed to linear value. […] Average changes of three cell lines detected by RPPA were shown in the figure. *, p<0.05 in comparison to control and IFN-α. C-E) Induction of PD-L1 by IFN-γ was diminished by the co-treatment of nNOS inhibitors. […]. Cell surface expression of PD-L1 was determined by flow cytometry. Representative histograms out of two independent experimental replicates are shown. C) IFN-α or IFN-γ (100 Units/ml); D-E) IFN-α or IFN-γ (250 Units/ml).
Reverse Phase Protein Array. Plated cells were treated with 250 units/mL of IFN-α or IFN-γ for […]. After washing with 1×PBS, lysis buffer (1% Triton X-100, 50 mM HEPES, pH 7.4, 150 mM NaCl, 1.5 mM MgCl2, 1 mM EGTA, 100 mM NaF, 10 mM Na pyrophosphate, 1 mM Na3VO4, 10% glycerol and 1% PIC) was added to the plates, followed by incubation on ice for 20 minutes with occasional shaking. Samples were then collected via scraping and spun down at 14,000 g^−1 for 10 minutes at 4° C. The protein concentration was then quantified by Bradford method and adjusted to 1.5 μg/μL with lysis buffer. Cell lysates were then mixed with 4×SDS sample buffer (40% glycerol, 8% SDS, 0.25M Tris-HCl, pH 6.8 with 10% BME). Miniscule amounts of serially diluted protein samples were then dotted on a nitrocellulose coated slide and probed with validated primary antibodies and a biotin-conjugated secondary antibody. The signals were amplified using Dako-Cytomation-Catalyzed system (Dako) and visualized by diaminobenzidine (DAB) colorimetric reaction. Dilution curves were fitted with Supercurve Fitting and the protein expressions normalized for protein loading.

Experiment [3] deals with Human A375 metastatic melanoma xenograft. The experiment can be described thus: A375 melanoma xenograft, IFN-γ with or without MAC-3-190. Type of experiment: in vivo, nude mice. As to the method: FIG. 6. […] Data was represented as mean±SD.
FIG. 7. Expression of PD-L1 in xenograft tumor samples obtained from the subject is administered an inhibitor of NOS and further is administered study detected by immunohistochemistry staining. PD-L1 staining (brown) of specimens at 100× (A) and 20× (B) magnification. […] . PD-L1 (C) and CD8 (D) stained specimens captured at 2× magnification.
In Vivo Xenograft Melanoma. […] .

The subject of experiment [4] is PD-L1 in A375 melanoma cells. Description: Cell surface PD-L1 expression by flow cytometry. Type of experiment: cell-based, human. As to the method: FIG. 4. […] Three melanoma cell lines were treated with 250 units/mL of interferons for 48 hours. Whole cell lysates were collected and subjected to RPPA assay. […] Red, high expression; green, low expression. All the data points were normalized for protein loading and transformed to linear value. […] Cell surface expression of PD-L1 was determined by flow cytometry. Representative histograms out of two independent experimental replicates are shown. C) IFN-α or IFN-γ (100 Units/ml); D-E) IFN-α or IFN-γ (250 Units/ml).
Expression levels of PD-L1 detected by Flow Cytometry.

B1: IFN-γ: Interferon-gamma, purchased from Invitrogen (protein, UniProt P01579 24-161, looked up)
Interferon gamma: QDPYVKEAENLKKYFNAGHSDVADNGTLFLGILKNWKEESDRKIMQSQIVSFYFKLFKNFKDDQSIQKSVETIKEDMNVKFFNSNKKKRDDFEKLTNYSVTDLNVQRKAIHELIQVMAELSPAAKTGKRKRSQMLFRG
Regarding B1, in the experiment with PD-L1 in A375 cells, the “extracellular expression of PD-L1” value was “markedly induced”. Further, the melanoma invasion potential result in experiment [1] is “significantly enhanced”. Moreover, in the experiment with STAT1, the “expression of STAT1” value was “higher induction”. Besides, in experiment [2], the “c-Myc and HIF-1α expression levels (RPPA)” value is on record as “Increased”. Also, in experiment [2] (average of three cell lines), the “PD-L1 expression level (RPPA)” value is recorded as 1.8 fold of control. The “PD-L1-positive staining in xenograft tumors (immunohistochemistry)” value in experiment [3] (21-day treatment, IFN-γ 1000 units per mouse i.p. daily, with or without MAC-3-190 5 mg/kg/day) was > 20%. In experiment [3] (IFN-γ 1000 units/day, 21 days), the “tumor growth in vivo” value is on record as “significantly stimulated”. The “MFI of PD-L1 staining obtained via flow cytometry” value in experiment [4] (A375 cells, IFN-γ alone or with MAC-3-190 (3 μM), 72-hour treatment) is on record as 3.3 folds of control. Also, in experiment [4] (interferon alone, three cell lines), the “cell surface expression of PD-L1” value is on record as “increased”.
